Legend:
[1] = test system: HT-29 cell line; assay: HT-29 cell proliferation (cell count, GUAVA PC Viacount); format: cell-based, human; settings: for toxic effect on HT-29 proliferation curves: 10 units, sampled over 72 hours; for dose that does not modify growth of the HT-29 cell line: dose range 0 to 50 NBT units
Experimental: The human colon carcinoma cell line HT-29 (ATCC HTB-38) is grown in 10% foetal bovine serum (FBS) in Dulbecco's modified Eagle's medium (D-MEM) supplemented with GlutaMAX-1, 4.5 g/L D-Glucose, sodium pyruvate and 100 unit/ml of penicillin/streptomycin. For each experiment (n=4) approximately 2×10^4 cells/well were incubated for 24 hours at 37° C. in 5% CO2 atmosphere. Prior to any experiment, existing culture medium was replaced by a fresh one.
After the incubation period, cell monolayers were detached with a PBS solution containing 0.05% trypsin and 0.5 mM EDTA, washed in calcium-free and magnesium-free phosphate-buffered saline solution (PBS) and collected by centrifugation. Cells were then counted in a hemocytometer by using the GUAVA PC Viacount Flex Kit and reported in cells/ml to estimate cellular proliferation.
In the current experiment, cultures are periodically sampled over a 72 hour period to assess the proliferation rate and the viability of HT-29 cells after exposure or not to various components, (a) 10 μM of gliadin peptide 982 (Triticum vulgare, QQPYPQPF, SEQ. ID No. 01) representing at least 100 times less than the concentration previously related to induce a significant enterocyte agglutination (De Vicenzi. M et al. 1997 Toxicology, vol 120 p 207) or enterocyte apoptosis (Giovannini et al. 2000, Toxicology, vol 145 p 63).
For recombinant protein dose-response experiments, HT-29 cells were incubated with increasing concentrations of recombinant SOD or Gli-SOD (0 to 50 NBT units) for a further 48 hours.
Cultures were periodically sampled over 72 hours to assess the proliferation rate and the viability of HT-29 cells after exposure or not to various components, (a) 10 units of recombinant SOD or (b) 10 units of recombinant SOD associated with 10 μM of peptide 982 or finally (c) 10 units of recombinant Gli-SOD (SOD physically linked to gliadin peptide 982).

[2] = test system: foot oedema induced by carrageenan or adriamycin; settings: cited from earlier work; for anti-inflammatory activity in rats: studies in rats
[3] = NBT photoreduction on NATIVE-PAGE electrophoresis (anti-radical / antioxidant activity of SODs); format: biochemical; settings: currently used bacterial host strains, rare codons
Experimental: The expression products of the first variants for each kind of constructions were used to validate the anti-radical activity of the various biosynthetic SODs obtained. These activities were verified by the reduction of NBT on native PAGE.
The melon pseudo cytosolic Cu—ZnSOD and the human or tomato cytosolic Cu—ZnSOD as well as their equivalents bearing the two different gliadin peptides are analysed for their antiradical activities. These activities are verified according to the NBT photoreduction on NATIVE-PAGE electrophoresis (Beauchamps and Fridovitch, 1971).
The Cucumis melo recombinant SOD as well as its equivalents bearing the gliadin peptide (Gli-SOD) were produced and purified according to a multiple step denaturation/renaturation protocol. […] The potentiality of both recombinant proteins (Cucumis melo SOD and Gli-SOD) to reduce NBT on NATIVE-PAGE electrophoresis (NBT photoreduction, Beauchamps and Fridovitch, 1971) was evaluated and compared with that of the natural Cucumis melo extract.
The migration profile and the NBT reduction obtained on Native-PAGE electrophoresis corroborate the correct and efficient refolding of both recombinant proteins, SOD or Gli-SOD (4 000-10 000 UNBT/mg protein) which is a mandatory event to display their antioxidant activity.

[4] = test system: HT-29 cells; assay: Basal apoptosis of HT-29 cells, annexin V test (GUAVA Nexin Kit); format: cell-based, human; settings: 10 units, 24 hours; for rate of basal apoptosis (annexin V positive cells): basal 20% (20.5)
Experimental: (§1) Apoptosis was analyzed in HT-29 cell line using the GUAVA Nexin Kit which discriminates between apoptotic and non apoptotic cells. This method utilizes annexin V Phycoerythrin to detect phopshatidylserine (PS) (Martin et al. 1995, J Exp Med vol 182 p 1545) on the external membrane of apoptotic cells.
(§2) After 24 hours, cell monolayers are detached with a PBS solution containing trypsin 0.05% and EDTA 0.5 mM, washed in calcium-free and magnesium-free phosphate-buffered saline solution (PBS) and apoptotic cell staining is performed and analysed with a GUAVA PCA system.
(§3) For the basal apoptotic inhibition (part A), the culture medium was replaced with fresh culture medium containing or absent 10 units of both recombinant SODs (NBT units). For the Orexin induced-apoptotic inhibition (part B), the culture medium was replaced with fresh culture medium containing 1 μM of orexin and/or 50 units of each recombinant SOD (NBT units). Results are expressed as the percentage of apoptotic annexin V-PE positive cells and are the means of four points.

[5] = test system: HT-29 cells; assay: Orexin-induced apoptosis of HT-29 cells, annexin V test; format: cell-based, human; settings: 50 units + 1 μM orexin; for rate of orexin-induced apoptosis: orexin alone 40%
Experimental: as §1, §2, §3
In a second experiment, the potent anti-apoptotic effect of the recombinant SOD or Gli-SOD was confirmed when apoptosis was induced via orexin supplementation to the HT-29 cells culture medium. In this case, the rate of HT-29 cell going into apoptosis may be enhanced from 20% evaluated for the basal level to 40% by addition of 1 μM of Orexin in the culture medium.

[6] = test system: HT-29 cells; assay: Xanthine/xanthine oxidase (X/XO)-induced apoptosis of HT-29 cells, annexin V test; format: cell-based, human; settings: 50 units, 10mU of X/XO complex
Experimental: as §1, §2
In this third experiment, tests of the potent anti-apoptotic effect of the recombinant SOD or Gli-SOD according to the invention on the possible Fas/FasL pathway via Xanthine/xanthine oxidase induction in the HT-29 cells culture medium were carried out.
In this case, the rate of HT-29 cell going into apoptosis may be enhanced from 20% evaluated for the basal level to 30% by addition of 10mU of X/XO complex in the culture medium. Addition of 50 units of recombinant melon SOD or again 50 units of recombinant Gli-SOD to the culture medium, prevented the X/XO-induced apoptotic pathway in the HT-29 cells respectively by 71% and 86%.

[7] = test system: HT-29 cells; assay: Binding of SOD or Gli-SOD to HT-29 cells, FITC immunohistochemistry with EP-1669; format: cell-based, human; settings: 50 units, 24 hours
Experimental: For each experiment (n=4), approximately 15×10^3 cells/lamella layer were incubated for 24 hours at 37° C. in 5% CO2 atmosphere. Prior to any experiment, existing culture medium was replaced by a fresh one.
The cell monolayer was then incubated in a fresh medium with or without 50 units of SOD or Gli-SOD for a further 24 hours, washed in calcium-free and magnesium-free phosphate-buffered saline solution (PBS) and then analyzed by immunohistochemistry. Binding of Gli-SOD to HT-29 cells was analyzed using the EP-1669 as a first antibody (rabbit IgG anti-SOD, dilution 1/2000°) for 30 minutes followed by a second FITC-coupled antibody for further 30 minutes (goat anti-rabbit antibody, dilution 1/100). This method was chosen rather than flow cytometry because the latter technique requires that cells be harvested by trypsin treatment and collected prior to analysis, and such treatment would likely have negatively impacted the interaction between the Gli-SOD molecules and cell surfaces.

Molecule: QQPYPQPQPF (Triticum vulgare) [peptide 982, 10 amino acids peptide of A-gliadin, Triticum vulgare]
- effect on HT-29 cell line proliferation at 24 hours ([1]; 10 μM peptide, 24 hours of culture): a major effect on HT-29 cell line proliferation, but exclusively at 24 hours of culture
- effect on HT-29 proliferation after 48 hours ([1]; 10 μM peptide, 48 hours): the proliferation returns to its basal level

Molecule: bovine CuZn-SODs: bovine CuZn superoxide dismutase
- anti-inflammatory activity after oral administration ([2]; administered orally, using liposomes or ceramides, rat leg oedema induced by carrageenan): reduction of rat leg oedema induced by carrageenan
- anti-inflammatory activity in rats [2]: such an anti-inflammatory activity

Molecule: homologous rat CuZn-SOD: rat CuZn superoxide dismutase
- anti-inflammatory activity in rats [2]: no anti-inflammatory activity

Molecule: Human CuZn-SOD: recombinant human cytosolic CuZn-SOD expressed in bacteria
- activity of biosynthetic SOD expressed in the applicant's bacterial system [3]: functional

B1: recombinant SOD: recombinant Cucumis melo CuZn superoxide dismutase (pseudo-cytosolic form) expressed in E. coli, His-tag cleaved, refolded (protein)
chain: MVKAVAVLKGTSDVEGVVTLTQEDDGPTSVNVRITGLTPGPHGFHLHEFGDTTNGCISTGAHFNPNKLTHGAPEDEIRHAGDLGNIIANADGVAEATIVDNQIPLSGPNSVVGRAFVVHELADDLGKGGHELSLTTGNAGGRLACGVVGLTPV
modifications: Cucumis melo
- toxic effect on HT-29 proliferation curves [1]: neither SOD nor Gli-SOD exert any toxic effect
- dose that does not modify growth of the HT-29 cell line ([1]; 48 hours): 10 units
- inhibition of basal apoptosis [4]: 12.2%
- rate of basal apoptosis (annexin V positive cells) [4]: 18%
- inhibition of orexin-induced apoptosis [5]: 26%
- rate of orexin-induced apoptosis [5]: 34.4%
- prevention of X/XO-induced apoptotic pathway [6]: 71%
- presence of SOD in the vicinity of the cells (FITC fluorescence) [7]: clearly visible

B2: recombinant Gli-SOD: recombinant melon CuZn SOD fused at its N-terminal part to A-gliadin peptide QQPYPQPQPF (peptide 982) (protein)
chain: QQPYPQPQPFMVKAVAVLKGTSDVEGVVTLTQEDDGPTSVNVRITGLTPGPHGFHLHEFGDTTNGCISTGAHFNPNKLTHGAPEDEIRHAGDLGNIIANADGVAEATIVDNQIPLSGPNSVVGRAFVVHELADDLGKGGHELSLTTGNAGGRLACGVVGLTPV
modifications: Cucumis melo
- "peptide effect" on HT-29 proliferation at 24 hours ([1]; 10 units SOD coupled to or associated with 10 μM peptide 982): no “peptide effect” at 24 hours of culture
- toxic effect on HT-29 proliferation curves [1]: neither SOD nor Gli-SOD exert any toxic effect
- dose that does not modify growth of the HT-29 cell line ([1]; 48 hours): 5 units
- inhibition of basal apoptosis [4]: 18.1%
- rate of basal apoptosis (annexin V positive cells) [4]: 16.8%
- inhibition of orexin-induced apoptosis [5]: 54.7%
- rate of orexin-induced apoptosis [5]: 28.7%
- prevention of X/XO-induced apoptotic pathway [6]: 86%
- presence of SOD in the vicinity of the cells (FITC fluorescence) [7]: apparently to a greater extent

B3: biosynthetic tomato cytosolic SODs: recombinant Lycopersicon esculentum cytosolic CuZn-SOD expressed in bacteria (protein, listed as Lycopersicon esculentum)
chain: MVKAVAVLNSSEGVSGTILFTQDGDAPTTVNGNISGLKPGLHGFHVHALGDTTNGCMSTGPHYNPAGKEHGAPEDEVRHAGDLGNITVGEDGTASFTITDKQIPLTGPQSIIGRAVVVHADPDDLGKGGHELSKSTGNAGGRIACGIIGLQG
- activity of biosynthetic SOD expressed in the applicant's bacterial system [3]: a lot less active

B4: human Mn-SOD: human manganese superoxide dismutase (protein, UniProt P04179 25-222, looked up)
Superoxide dismutase [Mn], …: KHSLPDLPYDYGALEPHINAQIMQLHHSKHHAAYVNNLNVTEEKYQEALAKGDVTAQIALQPALKFNGGGHINHSIFWTNLSPNGGGEPKGELLEAIKRDFGSFDKFKEKLTAASVGVQGSGWGWLGFNKERGHLQIAACPNQDPLQGTTGLIPLLGIDVWEHAYYLQYKNVRPDYLKAIWNVINWENVTERYMACKK
- anti-inflammatory activity in rats [2]: no anti-inflammatory activity

B5: yeast CuZn-SODs: yeast CuZn superoxide dismutase (protein, UniProt P00445 2-154, looked up)
Superoxide dismutase [Cu-Zn]: VQAVAVLKGDAGVSGVVKFEQASESEPTTVSYEIAGNSPNAERGFHIHEFGDATNGCVSAGPHFNPFKKTHGAPTDEVRHVGDMGNVKTDENGVAKGSFKDSLIKLIGPTSVVGRSVVIHAGQDDLGKGDTEESLKTGNAGPRPACGVIGLTN
- anti-inflammatory activity in rats [2]: pro-inflammatory activity

Source: US8092794B2, “Pharmaceutical compositions comprising SODs and prolamine based peptide fragments” (Isocell Pharma S.A., priority 2006, dated 2012)
